In patent US20230220042A1 (SHANGHAI JIAO TONG UNIVERSITY SCHOOL OF MEDICINE, published 2023):
Changes are numbered by the printed parent chain. Names and notes keep the numbering of the source. Values belong to the molecule of their own block, whether it stands above or below them.

Legend:
Biotin-FcγRIIB (human) = Biotin-FcγRIIB (human) (UniProt P31994); assay: FACS sorting of displayed Fc library on biotin-FcγRIIB, NGS
Biotin-FcγRIIB [1] = target: T1, Biotin-FcγRIIB (human, UniProt P31994 43-217, limits assumed, biotin-labelled); assay: magnetic sorting on biotin-FcγRIIB with unlabelled activating FcγRs, NGS; Library4
T1 construct: Bought, biotin-labelled; used at 1 µg/ml for staining and sorting; also called human FcγRIIB; CD32b
T1 sequence (looked up): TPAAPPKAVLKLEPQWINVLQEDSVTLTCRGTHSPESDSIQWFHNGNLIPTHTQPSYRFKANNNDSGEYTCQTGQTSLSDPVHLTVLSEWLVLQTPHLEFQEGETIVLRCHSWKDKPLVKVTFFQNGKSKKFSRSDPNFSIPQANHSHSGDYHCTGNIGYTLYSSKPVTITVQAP
Protocol: (§1) 3T3 cells were collected by trypsin digestion, and a single cell suspension was prepared. […] The cells were incubated for 15 minutes on ice and then washed twice with MACS buffer and re-suspended in 100 μl MACS buffer. Twenty-five μl anti-Biotin magnetic beads were added, and the cells were incubated for 15 minutes on ice and then washed once with MACS buffer and re-suspended to 500 μl, and added to the LS column put in the magnetic field. The effluent was collected, washed with 3 mL of MACS buffer and collected; The LS column was then removed out of the magnetic field, and 5 mL of MACS buffer was used to rapidly elute the remaining cells from the sorting column to collect positive cells, which are the high I/A ratio cells.
The high-FcγRIIB-affinity cells obtained from the above flow cytometry sorting are further sorted by magnetic-activated sorting. The cells are incubated with the mixture of Biotin-labeled FcγRIIB and non-labeled activating FcγRs, and then the labeled cells are sorted by anti-Biotin magnetic beads. The enrichment ratios after sorting relative to before sorting are analyzed by NGS.

Biotin-FcγRIIB [2] = target: T1, Biotin-FcγRIIB; assay: magnetic sorting on biotin-FcγRIIB with unlabelled activating FcγRs, NGS; LibraryMix #3
Protocol: as §1

Biotin-FcγRIIB [3] = target: T1, Biotin-FcγRIIB; assay: FACS sorting of displayed Fc library on biotin-FcγRIIB, NGS
Biotin-FcγRIIB [4] = target: T1, Biotin-FcγRIIB; assay: FACS sorting of displayed Fc library on biotin-FcγRIIB, NGS; reference P271G

Molecule: human IgG2 anti-mouse CD40 surface displayed antibody, Fc mutant G236V
Increased factor b Site 2 (point mutation/wild-type) (Biotin-FcγRIIB (human)): 0.5

Molecule: human IgG2 anti-mouse CD40 surface displayed antibody, Fc mutant S298D
Increased factor b Site 2 (point mutation/wild-type) (Biotin-FcγRIIB (human)): 1.6

Molecule: human IgG2 anti-mouse CD40 surface displayed antibody, Fc mutant P271W
Increased factor b Site 2 (point mutation/wild-type) (Biotin-FcγRIIB (human)): 0.4

Molecule: human IgG2 anti-mouse CD40 surface displayed antibody, Fc mutant T299S
Increased factor b Site 2 (point mutation/wild-type) (Biotin-FcγRIIB (human)): 0.6

Molecule: human IgG2 anti-mouse CD40 surface displayed antibody, Fc mutant P329S
Increased factor b Site 2 (point mutation/wild-type) (Biotin-FcγRIIB (human)): 1.2

Molecule: human IgG2 anti-mouse CD40 surface displayed antibody, Fc mutant T299A
Increased factor b Site 2 (point mutation/wild-type) (Biotin-FcγRIIB (human)): 0.4

Molecule: human IgG2 anti-mouse CD40 surface displayed antibody, Fc mutant S298G
Increased factor b Site 2 (point mutation/wild-type) (Biotin-FcγRIIB (human)): 1.2

B2: human IgG2 anti-mouse CD40 surface displayed antibody, Fc mutant G327S (antibody, name in EU numbering)
light chain (with the P2A rest): DTVLTQSPALAVSPGERVTISCRASDSVSTLMHWYQQKPGQQPKLLIYLASHLESGVPARFSGSGSGTDFTLTIDPVEADDTATYYCQQSWNDPWTFGGGTKLELKRTVAAPSVFIFPPSDEQLKSGTASVVCLLNNFYPREAKVQWKVDNALQSGNSQESVTEQDSKDSTYSLSSTLTLSKADYEKHKVYACEVTHQGLSSPVTKSFNRGECGSGATNFSLLKQAGDVEENPG
heavy chain: EVQLVESDGGLVQPGRSLKLPCAASGFTFSDYYMAWVRQAPTKGLEWVASISYDGSSTYYRDSVKGRFTISRDNAKSTLYLQMDSLRSEDTATYYCGRHSSYFDYWGQGVMVTVSSASTKGPSVFPLAPCSRSTSESTAALGCLVKDYFPEPVTVSWNSGALTSGVHTFPAVLQSSGLYSLSSVVTVPSSNFGTQTYTCNVDHKPSNTKVDKTVERKCCVECPPCPAPPVAGPSVFLFPPKPKDTLMISRTPEVTCVVVDVSHEDPEVQFNWYVDGVEVHNAKTKPREEQFNSTFRVVSVLTVVHQDWLNGKEYKCKVSNKSLPAPIEKTISKTKGQPREPQVYTLPPSREEMTKNQVSLTCLVKGFYPSDIAVEWESNGQPENNYKTTPPMLDSDGSFFLYSKLTVDKSRWQQGNVFSCSVMHEALHNHYTQKSLSLSPGKLEPPPSTVSNMATVAVLVVLGAAIVTGAVVAFVMKMRRRNTGGKGGDYALAPGSQTSDLSLPDCKVMVHDPHSLA
notes: as m1; positions are Eu numbers; copies: 2 + 2
Enrichment factor (percentage after sorting/percentage before sorting) (Biotin-FcγRIIB [1]): 6.9 | Increased factor (mutation enrichment factor/wild-type enrichment factor) (Biotin-FcγRIIB [1]): 7.84 | Percentage after sorting/unbinding percentage (Biotin-FcγRIIB [1]): 71.2 | Percentage before sorting/unbinding percentage (Biotin-FcγRIIB [1]): 10.3

B4: human IgG2 anti-mouse CD40 surface displayed antibody, Fc mutant L328G (antibody, name in EU numbering)
light chain (with the P2A rest): B2 light chain (with the P2A rest)
heavy chain: B2 heavy chain with S322G, L323G
notes: as for B2
Enrichment factor (percentage after sorting/percentage before sorting) (Biotin-FcγRIIB [2]): 3.01 | Increased factor (mutation enrichment factor/wild-type enrichment factor) (Biotin-FcγRIIB [2]): 2.67

B5: human IgG2 anti-mouse CD40 surface displayed antibody, Fc mutant L328N (antibody, name in EU numbering)
light chain (with the P2A rest): B2 light chain (with the P2A rest)
heavy chain: B2 heavy chain with S322G, L323N
notes: as for B2
Enrichment factor (percentage after sorting/percentage before sorting) (Biotin-FcγRIIB [1]): 2.73 | Increased factor (mutation enrichment factor/wild-type enrichment factor) (Biotin-FcγRIIB [1]): 3.11 | Percentage after sorting/unbinding percentage (Biotin-FcγRIIB [1]): 50.9 | Percentage before sorting/unbinding percentage (Biotin-FcγRIIB [1]): 18.6

B6: human IgG2 anti-mouse CD40 surface displayed antibody, Fc mutant L328R (antibody, name in EU numbering)
light chain (with the P2A rest): B2 light chain (with the P2A rest)
heavy chain: B2 heavy chain with S322G, L323R
notes: as for B2
Enrichment factor (percentage after sorting/percentage before sorting) (Biotin-FcγRIIB [2]): 5.3 | Increased factor (mutation enrichment factor/wild-type enrichment factor) (Biotin-FcγRIIB [2]): 4.69 | Percentage after sorting/unbinding percentage (Biotin-FcγRIIB [2]): 30.8 | Percentage before sorting/unbinding percentage (Biotin-FcγRIIB [2]): 5.82

B7: human IgG2 anti-mouse CD40 surface displayed antibody, Fc mutant L328V (antibody, name in EU numbering)
light chain (with the P2A rest): B2 light chain (with the P2A rest)
heavy chain: B2 heavy chain with S322G, L323V
notes: as for B2
Enrichment factor (percentage after sorting/percentage before sorting) (Biotin-FcγRIIB [2]): 2.31 | Increased factor (mutation enrichment factor/wild-type enrichment factor) (Biotin-FcγRIIB [2]): 2.04 | Percentage after sorting/unbinding percentage (Biotin-FcγRIIB [2]): 25.4 | Percentage before sorting/unbinding percentage (Biotin-FcγRIIB [2]): 11

B8: human IgG2 anti-mouse CD40 surface displayed antibody, Fc mutant P271G/S298N (antibody, name in EU numbering)
light chain (with the P2A rest): B2 light chain (with the P2A rest)
heavy chain: B2 heavy chain with P266G, S293N, S322G
notes: as for B2
Enrichment factor (after/before sorting) (Biotin-FcγRIIB [3]): 18 | Increased factor a (enrichment factor/wild-type enrichment factor) (Biotin-FcγRIIB [3]): 24 | Increased factor 2 c Site 1 (combined/point mutation) (Biotin-FcγRIIB [4]): 5.1 | Enrichment factor (percentage after sorting/percentage before sorting) (Biotin-FcγRIIB [2]): 2.31 | Increased factor (mutation enrichment factor/wild-type enrichment factor) (Biotin-FcγRIIB [2]): 2.04 | Percentage after sorting/unbinding percentage (Biotin-FcγRIIB [2]): 11.9 | Percentage before sorting/unbinding percentage (Biotin-FcγRIIB [2]): 5.17

B9: human IgG2 anti-mouse CD40 surface displayed antibody, Fc mutant S267M/P271G (antibody, name in EU numbering)
light chain (with the P2A rest): B2 light chain (with the P2A rest)
heavy chain: B2 heavy chain with S262M, P266G, S322G
notes: as for B2
Enrichment factor (after/before sorting) (Biotin-FcγRIIB [3]): 4.31 | Increased factor a (enrichment factor/wild-type enrichment factor) (Biotin-FcγRIIB [3]): 7.52 | Increased factor 2 c Site 2 (combined/point mutation) (Biotin-FcγRIIB [4]): 1.6

B10: human IgG2 anti-mouse CD40 surface displayed antibody, Fc mutant V266A/P271G (antibody, name in EU numbering)
light chain (with the P2A rest): B2 light chain (with the P2A rest)
heavy chain: B2 heavy chain with V261A, P266G, S322G
notes: as for B2
Enrichment factor (after/before sorting) (Biotin-FcγRIIB [3]): 8.63 | Increased factor a (enrichment factor/wild-type enrichment factor) (Biotin-FcγRIIB [3]): 15 | Increased factor 2 c Site 2 (combined/point mutation) (Biotin-FcγRIIB [4]): 3.2

The remaining lines, values ahead:

Increased factor b Site 2 (point mutation/wild-type) (Biotin-FcγRIIB (human)): 0.5
Molecule: human IgG2 anti-mouse CD40 surface displayed antibody, Fc mutant T299W

Increased factor b Site 2 (point mutation/wild-type) (Biotin-FcγRIIB (human)): 1.3
Molecule: human IgG2 anti-mouse CD40 surface displayed antibody, Fc mutant D270H

Increased factor b Site 2 (point mutation/wild-type) (Biotin-FcγRIIB (human)): 0.8
Molecule: human IgG2 anti-mouse CD40 surface displayed antibody, Fc mutant S298R

Increased factor b Site 2 (point mutation/wild-type) (Biotin-FcγRIIB (human)): 1.6
Molecule: human IgG2 anti-mouse CD40 surface displayed antibody, Fc mutant I332T

Increased factor b Site 2 (point mutation/wild-type) (Biotin-FcγRIIB (human)): 1.1
Molecule: human IgG2 anti-mouse CD40 surface displayed antibody, Fc mutant I332E

Enrichment factor (percentage after sorting/percentage before sorting) (Biotin-FcγRIIB [1]): 3.77 | Increased factor (mutation enrichment factor/wild-type enrichment factor) (Biotin-FcγRIIB [1]): 4.28 | Percentage after sorting/unbinding percentage (Biotin-FcγRIIB [1]): 3.8 | Percentage before sorting/unbinding percentage (Biotin-FcγRIIB [1]): 1.01
B1: human IgG2 anti-mouse CD40 surface displayed antibody, Fc mutant G327L (antibody, name in EU numbering)
light chain (with the P2A rest): B2 light chain (with the P2A rest)
heavy chain: B2 heavy chain with S322L
notes: as for B2

Enrichment factor (percentage after sorting/percentage before sorting) (Biotin-FcγRIIB [2]): 7.85 | Increased factor (mutation enrichment factor/wild-type enrichment factor) (Biotin-FcγRIIB [2]): 6.95
B3: human IgG2 anti-mouse CD40 surface displayed antibody, Fc mutant H268S (antibody, name in EU numbering)
light chain (with the P2A rest): B2 light chain (with the P2A rest)
heavy chain: B2 heavy chain with H263S, S322G
notes: as for B2
